By Kd is commonly meant the constant that tells how readily two partners part at equilibrium.

The target in this assay is T1, M1-linked di-Ub (UniProt P0CG48 1-76; P0CG48 1-76).
T1 construct: ubiquitin, distal protomer (its C-terminus joined to M1 of the next); ubiquitin, proximal protomer (free C-terminus); also called M1 di-Ub; linear di-Ub; source: E. coli, purified (acid precipitation, cation exchange, SEC)
The assay can be described thus: ITC; M1-linked di-Ub and HOIL-1 (WT or I358R), direct binding; who was titrated and the concentrations are not told; 25 °C, 10 mM HEPES pH 7.9, 100 mM NaCl. The note with it: both partners purified.

B1: HOIL-1 helix-RBR (WT) (domain or fragment, human, UniProt Q9BYM8 233-510, looked up)
chain: DEEERARLAGEEEALRQYQQRKQQQQEGNYLQHVQLDQRSLVLNTEPAECPVCYSVLAPGEAVVLRECLHTFCRECLQGTIRNSQEAEVSCPFIDNTYSCSGKLLEREIKALLTPEDYQRFLDLGISIAENRSAFSYHCKTPDCKGWCFFEDDVNEFTCPVCFHVNCLLCKAIHEQMNCKEYQEDLALRAQNDVAARQTTEMLKVMLQQGEAMRCPQCQIVVQKKDGCDWIRCTVCHTEICWVTKGPRWGPGGPGDTSGGCRCRVNGIPCHPSCQNCH
notes: HOIL-1, human, residues 233-510 (N-terminal helix and RBR module); also called WT HOIL-1; HOIL-1 233-510 (helix-RBR); source: E. coli BL21(DE3), purified (Ni-NTA, SEC)
As to B1, the Kd was approximately 50 µM.

These data come from paper PMC9834252 (Nature Communications, 2023).
